Columns and labels:
HeLa Kyoto [1] = experiment: solubility in G1/S (NP-40 vs SDS abundance) (log2 ratio); higher = more soluble; conditions: cell cycle stage: G1/S
HeLa Kyoto [2] = experiment: melting temperature (median over replicates), in situ; higher = more thermally stable
HeLa Kyoto [3] = experiment: solubility change mitosis vs G1/S (difference of NP-40 vs SDS log2 ratios) (log2 ratio difference); higher = more soluble in mitosis
HeLa Kyoto [4] = experiment: thermal stability score vs G1/S (z-score of summed log2 fold changes over temperatures); higher = more thermally stable than in G1/S
[5] = cell cycle stage: early G1 (4.5 h after nocodazole release)
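Wherever melting temperature (median over replicates), in situ is given: HeLa Kyoto cells synchronized by double thymidine or nocodazole block, proteins quantified by TMT10plex mass spectrometry, three independent biological replicates.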
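Wherever solubility change mitosis vs G1/S (difference of NP-40 vs SDS log2 ratios) is given: synchronized HeLa Kyoto cells (double thymidine block for G1/S, nocodazole release for mitosis), protein amounts in NP-40 versus SDS lysates quantified by mass spectrometry, three biological replicates.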
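Wherever solubility in G1/S (NP-40 vs SDS abundance) is given: HeLa Kyoto cells arrested at G1/S by double thymidine block, proteins quantified by TMT10plex mass spectrometry in mild NP-40 versus SDS extracts, three biological replicates.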
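Wherever thermal stability score vs G1/S (z-score of summed log2 fold changes over temperatures) is given: synchronized HeLa Kyoto cells, proteins quantified by TMT10plex mass spectrometry, three biological replicates, mitosis taken 0.5 h after nocodazole release, G1/S directly after double thymidine block.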

Substance	solubility in G1/S (log2) (HeLa Kyoto [1])	melting temperature (HeLa Kyoto [2]; cell cycle stage: G1/S)	melting temperature (HeLa Kyoto [2]; cell cycle stage: mitosis)	solubility change mitosis (log2) (HeLa Kyoto [3])	thermal stability score (HeLa Kyoto [4]; [5])	thermal stability score (HeLa Kyoto [4]; cell cycle stage: mitosis)
MSVVGLDVGSQSCYIAVARAGGIETIANEFSDRCTPSVISFGSKNRTIGVAAKNQQITHANNTVSNFKRFHGRAFNDPFIQKEKENLSYDLVPLKNGGVGIKVMYMGEEHLFSVEQITAMLLTKLKETAENSLKKPVTDCVISVPSFFTDAERRSVLDAAQIVGLNCLRLMNDMTAVALNYGIYKQDLPSLDEKPRIVVFVDMGHSAFQVSACAFNKGKLKVLGTAFDPFLGGKNFDEKLVEHFCAEFKTKYKLDAKSKIRALLRLYQECEKLKKLMSSNSTDLPLNIECFMNDKDVSGKMNRSQFEELCAELLQKIEVPLYSLLEQTHLKVEDVSAVEIVGGATRIPAVKERIAKFFGKDISTTLNADEAVARGCALQCAILSPAFKVREFSVTDAVPFPISLIWNHDSEDTEGVHEVFSRNHAAPFSKVLTFLRRGPFELEAFYSDPQGVPYPEAKIGRFVVQNVSAQKDGEKSRVKVKVRVNTHGIFTISTASMVEKVPTEENEMSSEADMECLNQRPPENPDTDKNVQQDNSEAGTQPQVQTDAQQTSQSPPSPELTSEENKIPDADKANEKKVDQPPEAKKPKIKVVNVELPIEANLVWQLGKDLLNMYIETEGKMIMQDKLEKERNDAKNAVEEYVYEFRDKLCGPYEKFICEQDHQNFLRLLTETEDWLYEEGEDQAKQAYVDKLEELMKIGTPVKVRFQEAEERPKMFEELGQRLQHYAKIAADFRNKDEKYNHIDESEMKKVEKSVNEVMEWMNNVMNAQAKKSLDQDPVVRAQEIKTKIKELNNTCEPVVTQPKPKIESPKLERTPNGPNIDKKEEDLEDKNNFGAEPPHQNGECYPNEKNSVNMDLD [HSPH1]	0.203	50.2 °C	49.7 °C	-0.0593	1.34	1.52
MRSAAKPWNPAIRAGGHGPDRVRPLPAASSGMKSSKSSTSLAFESRLSRLKRASSEDTLNKPGSTAASGVVRLKKTATAGAISELTESRLRSGTGAFTTTKRTGIPAPREFSVTVSRERSVPRGPSNPRKSVSSPTSSNTPTPTKHLRTPSTKPKQENEGGEKAALESQVRELLAEAKAKDSEINRLRSELKKYKEKRTLNAEGTDALGPNVDGTSVSPGDTEPMIRALEEKNKNFQKELSDLEEENRVLKEKLIYLEHSPNSEGAASHTGDSSCPTSITQESSFGSPTGNQMSSDIDEYKKNIHGNALRTSGSSSSDVTKASLSPDASDFEHITAETPSRPLSSTSNPFKSSKCSTAGSSPNSVSELSLASLTEKIQKMEENHHSTAEELQATLQELSDQQQMVQELTAENEKLVDEKTILETSFHQHRERAEQLSQENEKLMNLLQERVKNEEPTTQEGKIIELEQKCTGILEQGRFEREKLLNIQQQLTCSLRKVEEENQGALEMIKRLKEENEKLNEFLELERHNNNMMAKTLEECRVTLEGLKMENGSLKSHLQGEKQKATEASAVEQTAESCEVQEMLKVARAEKDLLELSCNELRQELLKANGEIKHVSSLLAKVEKDYSYLKEICDHQAEQLSRTSLKLQEKASESDAEIKDMKETIFELEDQVEQHRAVKLHNNQLISELESSVIKLEEQKSDLERQLKTLTKQMKEETEEWRRFQADLQTAVVVANDIKCEAQQELRTVKRKLLEEEEKNARLQKELGDVQGHGRVVTSRAAPPPVDEEPESSEVDAAGRWPGVCVSRTSPTPPESATTVKSLIKSFDLGRPGGAGQNISVHKTPRSPLSGIPVRTAPAAAVSPMQRHSTYSSVRPASRGVTQRLDLPDLPLSDILKGRTETLKPDPHLRKSPSLESLSRPPSLGFGDTRLLSASTRAWKPQSKLSVERKDPLAALAREYGGSKRNALLKWCQKKTQGYANIDITNFSSSWSDGLAFCALLHTYLPAHIPYQELNSQEKKRNLLLAFEAAESVGIKPSLELSEMLYTDRPDWQSVMQYVAQIYKYFET [SPECC1]	0.148	52.2 °C	51.5 °C	-0.147	-1.45	-1.95
TOR1AIP1	-0.0913	54.4 °C	54.9 °C	0.144	1.27	1.41
ATG3	0.11	54.3 °C	54.1 °C	-0.0379	0.129	-0.694
MKSLKSRLRRQDVPGPASSGAAAASAHAADWNKYDDRLMKAAERGDVEKVTSILAKKGVNPGKLDVEGRSVFHVVTSKGNLECLNAILIHGVDITTSDTAGRNALHLAAKYGHALCLQKLLQYNCPTEHADLQGRTALHDAAMADCPSSIQLLCDHGASVNAKDVDGRTPLVLATQMSRPTICQLLIDRGADVNSRDKQNRTALMLGCEYGCRDAVEVLIKNGADISLLDALGHDSSYYARIGDNLDILTLLKTASENTNKGRELWKKGPSLQQRNLTHMQDEVNVKSHQREHQNIQDLEIENEDLKERLRKIQQEQRILLDKVNGLQLQLNEEVMVADDLESEREKLKSLLAAKEKQHEESLRTIEALKNRFKYFESDHLGSGSHFSNRKEDMLLKQGQMYMADSQCTSPGIPAHMQSRSMLRPLELSLPSQTSYSENEILKKELEAMRTFCESAKQDRLKLQNELAHKVAECKALALECERVKEDSDEQIKQLEDALKDVQKRMYESEGKVKQMQTHFLALKEHLTSEAASGNHRLTEELKDQLKDLKVKYEGASAEVGKLRNQIKQNEMIVEEFKRDEGKLIEENKRLQKELSMCEMEREKKGRKVTEMEGQAKELSAKLALSIPAEKFENMKSSLSNEVNEKAKKLVEMEREHEKSLSEIRQLKRELENVKAKLAQHVKPEEHEQVKSRLEQKSGELGKKITELTLKNQTLQKEIEKVYLDNKLLKEQAHNLTIEMKNHYVPLKVSEDMKKSHDAIIDDLNRKLLDVTQKYTEKKLEMEKLLLENDSLSKDVSRLETVFVPPEKHEKEIIALKSNIVELKKQLSELKKKCGEDQEKIHALTSENTNLKKMMSNQYVPVKTHEEVKMTLNDTLAKTNRELLDVKKKFEDINQEFVKIKDKNEILKRNLENTQNQIKAEYISLAEHEAKMSSLSQSMRKVQDSNAEILANYRKGQEEIVTLHAEIKAQKKELDTIQECIKVKYAPIVSFEECERKFKATEKELKDQLSEQTQKYSVSEEEVKKNKQENDKLKKEIFTLQKDLRDKTVLIEKSHEMERALSRKTDELNKQLKDLSQKYTEVKNVKEKLVEENAKQTSEILAVQNLLQKQHVPLEQVEALKKSLNGTIENLKEELKSMQRCYEKEQQTVTKLHQLLENQKNSSVPLAEHLQIKEAFEKEVGIIKASLREKEEESQNKMEEVSKLQSEVQNTKQALKKLETREVVDLSKYKATKSDLETQISSLNEKLANLNRKYEEVCEEVLHAKKKEISAKDEKELLHFSIEQEIKDQKERCDKSLTTITELQRRIQESAKQIEAKDNKITELLNDVERLKQALNGLSQLTYTSGNPTKRQSQLIDTLQHQVKSLEQQLADADRQHQEVIAIYRTHLLSAAQGHMDEDVQEALLQIIQMRQGLVC [UACA]	0.233	48.5 °C	50.6 °C	-0.0155	1.19	0.0635
MLRRRGSPGMGVHVGAALGALWFCLTGALEVQVPEDPVVALVGTDATLCCSFSPEPGFSLAQLNLIWQLTDTKQLVHSFAEGQDQGSAYANRTALFPDLLAQGNASLRLQRVRVADEGSFTCFVSIRDFGSAAVSLQVAAPYSKPSMTLEPNKDLRPGDTVTITCSSYQGYPEAEVFWQDGQGVPLTGNVTTSQMANEQGLFDVHSILRVVLGANGTYSCLVRNPVLQQDAHSSVTITPQRSPTGAVEVQVPEDPVVALVGTDATLRCSFSPEPGFSLAQLNLIWQLTDTKQLVHSFTEGRDQGSAYANRTALFPDLLAQGNASLRLQRVRVADEGSFTCFVSIRDFGSAAVSLQVAAPYSKPSMTLEPNKDLRPGDTVTITCSSYRGYPEAEVFWQDGQGVPLTGNVTTSQMANEQGLFDVHSVLRVVLGANGTYSCLVRNPVLQQDAHGSVTITGQPMTFPPEALWVTVGLSVCLIALLVALAFVCWRKIKQSCEEENAGAEDQDGEGEGSKTALQPLKHSDSKEDDGQEIA [CD276]	0.244	59 °C	57.1 °C	-0.0859	-2.08	-3.76
MAMQKIFAREILDSRGNPTVEVDLHTAKGRFRAAVPSGASTGIYEALELRDGDKGRYLGKGVLKAVENINNTLGPALLQKKLSVVDQEKVDKFMIELDGTENKSKFGANAILGVSLAVCKAGAAEKGVPLYRHIADLAGNPDLILPVPAFNVINGGSHAGNKLAMQEFMILPVGASSFKEAMRIGAEVYHHLKGVIKAKYGKDATNVGDEGGFAPNILENNEALELLKTAIQAAGYPDKVVIGMDVAASEFYRNGKYDLDFKSPDDPARHITGEKLGELYKSFIKNYPVVSIEDPFDQDDWATWTSFLSGVNIQIVGDDLTVTNPKRIAQAVEKKACNCLLLKVNQIGSVTESIQACKLAQSNGWGVMVSHRSGETEDTFIADLVVGLCTGQIKTGAPCRSERLAKYNQLMRIEEALGDKAIFAGRKFRNPKAK [ENO3]	0.117	55.2 °C	56.6 °C	0.0137	-0.939	-1.58
MAAARPSLGRVLPGSSVLFLCDMQEKFRHNIAYFPQIVSVAARMLKVARLLEVPVMLTEQYPQGLGPTVPELGTEGLRPLAKTCFSMVPALQQELDSRPQLRSVLLCGIEAQACILNTTLDLLDRGLQVHVVVDACSSRSQVDRLVALARMRQSGAFLSTSEGLILQLVGDAVHPQFKEIQKLIKEPAPDSGLLGLFQGQNSLLH [ISOC2]	0.188	55.1 °C	54.9 °C	-0.173	1.82	-1.19
MPHLENVVLCRESQVSILQSLFGERHHFSFPSIFIYGHTASGKTYVTQTLLKTLELPHVFVNCVECFTLRLLLEQILNKLNHLSSSEDGCSTEITCETFNDFVRLFKQVTTAENLKDQTVYIVLDKAEYLRDMEANLLPGFLRLQELADRNVTVLFLSEIVWEKFRPNTGCFEPFVLYFPDYSIGNLQKILSHDHPPEYSADFYAAYINILLGVFYTVCRDLKELRHLAVLNFPKYCEPVVKGEASERDTRKLWRNIEPHLKKAMQTVYLREISSSQWEKLQKDDTDPGQLKGLSAHTHVELPYYSKFILIAAYLASYNPARTDKRFFLKHHGKIKKTNFLKKHEKTSNHLLGPKPFPLDRLLAILYSIVDSRVAPTANIFSQITSLVTLQLLTLVGHDDQLDGPKYKCTVSLDFIRAIARTVNFDIIKYLYDFL [ORC5]	-0.362	47.1 °C	49 °C	-0.126	0.957	1.24
MADREGGCAAGRGRELEPELEPGPGPGSALEPGEEFEIVDRSQLPGPGDLRSATRPRAAEGWSAPILTLARRATGNLSASCGSALRAAAGLGGGDSGDGTARAASKCQMMEERANLMHMMKLSIKVLLQSALSLGRSLDADHAPLQQFFVVMEHCLKHGLKVKKSFIGQNKSFFGPLELVEKLCPEASDIATSVRNLPELKTAVGRGRAWLYLALMQKKLADYLKVLIDNKHLLSEFYEPEALMMEEEGMVIVGLLVGLNVLDANLCLKGEDLDSQVGVIDFSLYLKDVQDLDGGKEHERITDVLDQKNYVEELNRHLSCTVGDLQTKIDGLEKTNSKLQEELSAATDRICSLQEEQQQLREQNELIRERSEKSVEITKQDTKVELETYKQTRQGLDEMYSDVWKQLKEEKKVRLELEKELELQIGMKTEMEIAMKLLEKDTHEKQDTLVALRQQLEEVKAINLQMFHKAQNAESSLQQKNEAITSFEGKTNQVMSSMKQMEERLQHSERARQGAEERSHKLQQELGGRIGALQLQLSQLHEQCSSLEKELKSEKEQRQALQRELQHEKDTSSLLRMELQQVEGLKKELRELQDEKAELQKICEEQEQALQEMGLHLSQSKLKMEDIKEVNQALKGHAWLKDDEATHCRQCEKEFSISRRKHHCRNCGHIFCNTCSSNELALPSYPKPVRVCDSCHTLLLQRCSSTAS [RUFY1]	0.163	49.5 °C	49.8 °C	-0.0933	0.538	1.01
MASYPYRQGCPGAAGQAPGAPPGSYYPGPPNSGGQYGSGLPPGGGYGGPAPGGPYGPPAGGGPYGHPNPGMFPSGTPGGPYGGAAPGGPYGQPPPSSYGAQQPGLYGQGGAPPNVDPEAYSWFQSVDSDHSGYISMKELKQALVNCNWSSFNDETCLMMINMFDKTKSGRIDVYGFSALWKFIQQWKNLFQQYDRDRSGSISYTELQQALSQMGYNLSPQFTQLLVSRYCPRSANPAMQLDRFIQVCTQLQVLTEAFREKDTAVQGNIRLSFEDFVTMTASRML [PEF1]	-0.126	53.5 °C	53.2 °C	0.345	-1.46	-1.2

Reference: the supplement of paper PMC5998384
